From patent US20110014616

Legend:
Test in all cases: cell_activity
[1] = system: CCR5-specific ZFN pair (synthetic construct); conditions: K562, unsorted, Cel-1 assay; 37.5% after SSA sorting
[2] = system: Factor IX-specific ZFN pair (synthetic construct); conditions: K562, unsorted, Cel-1 assay; 40.79% after SSA sorting
[3] = system: WAS-specific ZFN pair (synthetic construct); conditions: K562, Cel-1 assay, day 3

CCR5 ZFN target site
activity [1]: 25 % NHEJ

Factor IX ZFN target site
activity [2]: 17.9 % NHEJ

WAS ZFN target site
activity [3]: 17.9 % NHEJ
